Source: patent publication US20240270866A1 (Alector, published 2024)
Substitutions are numbered along the chain they refer to. Values belong to the binder of their own block, whether it stands above or below them.

Columns and labels:
[1] = target: T1, mouse SIRPA overexpressed on CHO cells (mouse, UniProt P97797 32-513); assay: flow, CHO-muSIRPA;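 for relative MFI: antibody binding measured by flow cytometry: cells stained with 1 ug/ml test antibody for 1 h on ice, detected with PE-labelled secondary antibody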
T1 construct: also called CHO-muSIRPA
T1 sequence: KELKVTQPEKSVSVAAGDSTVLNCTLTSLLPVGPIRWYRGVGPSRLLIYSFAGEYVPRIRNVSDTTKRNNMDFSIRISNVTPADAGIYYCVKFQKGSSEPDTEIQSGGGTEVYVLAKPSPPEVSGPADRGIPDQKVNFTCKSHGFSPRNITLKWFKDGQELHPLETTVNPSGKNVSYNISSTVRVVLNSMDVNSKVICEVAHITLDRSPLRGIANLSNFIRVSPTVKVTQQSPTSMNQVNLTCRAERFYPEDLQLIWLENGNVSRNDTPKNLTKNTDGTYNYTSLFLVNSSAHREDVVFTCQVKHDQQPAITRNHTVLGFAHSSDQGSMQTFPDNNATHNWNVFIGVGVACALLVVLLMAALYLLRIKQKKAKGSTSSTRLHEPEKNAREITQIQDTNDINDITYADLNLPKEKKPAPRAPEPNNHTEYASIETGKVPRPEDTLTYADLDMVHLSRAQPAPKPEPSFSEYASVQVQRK

Human SIRPA D1 Fc = target: T2, Human SIRPA D1 Fc (human, UniProt P78324 32-137); assay: ForteBio IgG avid;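 note: antibody IgG captured on AHQ biosensors, then 100 nM Fc-fused SIRP antigen applied for 3 min, followed by 3 min buffer dissociation, kinetics fitted to a 1:1 model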
T2 construct: not shown: human IgG1 Fc

Mouse SIRPA D1 Fc = target: T3, Mouse SIRPA D1 Fc (mouse, UniProt P97797 32-150, limits assumed); assay: ForteBio IgG avid;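 note: antibody IgG captured on AHQ biosensors, then 100 nM Fc-fused SIRP antigen applied for 3 min, followed by 3 min buffer dissociation, kinetics fitted to a 1:1 model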
T3 sequence: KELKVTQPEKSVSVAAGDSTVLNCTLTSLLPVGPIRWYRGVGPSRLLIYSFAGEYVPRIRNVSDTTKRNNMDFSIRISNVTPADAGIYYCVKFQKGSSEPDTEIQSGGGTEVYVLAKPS

Human SIRPb D1 Fc = Human SIRPb D1 Fc (human, UniProt O00241 30-148, limits assumed); assay: ForteBio IgG avid;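 note: antibody IgG captured on AHQ biosensors, then 100 nM Fc-fused SIRP antigen applied for 3 min, followed by 3 min buffer dissociation, kinetics fitted to a 1:1 model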
Chain of Human SIRPb D1 Fc (O00241 30-148 limits assumed): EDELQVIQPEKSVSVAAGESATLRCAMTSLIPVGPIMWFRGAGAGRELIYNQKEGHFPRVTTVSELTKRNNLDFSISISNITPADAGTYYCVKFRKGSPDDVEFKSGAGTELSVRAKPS

[2] = target: T4, human SIRPA overexpressed on CHO cells (human, UniProt P78324 31-504); assay: flow, CHO-huSIRPA;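 note: Anti-SIRPA antibodies applied at 1 µg/mL for 1 h on ice, binding read by flow cytometry using a PE-labelled secondary antibody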
T4 construct: also called CHO-huSIRPA

[3] = target: T1, mouse SIRPA overexpressed on CHO cells; assay: flow, CHO-muSIRPA; remark: listed apart in the source;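 for relative MFI: antibody binding measured by flow cytometry: cells stained with 1 ug/ml test antibody for 1 h on ice, detected with PE-labelled secondary antibody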
[4] = target: T5, human SIRPA Fc fusion antigen (human, UniProt P78324 31-373); assay: ForteBio IgG avid;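 note: ForteBio sensor-based avid binding of anti-SIRPA antibodies in IgG format, with the binding partner in solution at 100 nM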
T5 construct: heterologous signal peptide; not shown: human IgG1 Fc

[5] = target: T6, human SIRPβ1 Fc fusion antigen (human, UniProt O00241 30-371); assay: ForteBio IgG avid;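 note: ForteBio sensor-based avid binding of anti-SIRPA antibodies in IgG format, with the binding partner in solution at 100 nM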
T6 construct: not shown: human IgG1 Fc
T6 sequence (O00241 30-371 limits assumed): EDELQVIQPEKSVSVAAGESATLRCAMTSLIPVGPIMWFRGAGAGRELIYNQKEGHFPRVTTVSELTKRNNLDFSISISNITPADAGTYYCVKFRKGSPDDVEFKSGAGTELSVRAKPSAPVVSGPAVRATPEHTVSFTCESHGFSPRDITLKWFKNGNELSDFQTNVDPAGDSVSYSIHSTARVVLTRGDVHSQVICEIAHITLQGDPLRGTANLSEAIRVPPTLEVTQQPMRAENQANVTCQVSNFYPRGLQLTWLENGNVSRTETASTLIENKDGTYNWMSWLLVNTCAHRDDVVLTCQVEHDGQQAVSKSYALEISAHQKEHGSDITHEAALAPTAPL

[6] = target: human SIRPA-DAP12 chimera on BWZ NFAT-luciferase reporter cells (human, UniProt O43914 62-113, limits assumed); assay: cell-based or functional assay
[7] = target: T5, human SIRPA Fc fusion antigen; assay: ForteBio Fab monovalent
Experimental: (§1) Briefly, ForteBio affinity measurements were performed by loading immunoglobulins (IgGs) on-line onto AHQ sensors. Sensors were equilibrated off-line in assay buffer for 30 min and then monitored on-line for 60 seconds for baseline establishment. For avid binding measurement, sensors with loaded IgGs were exposed to 100 nM antigen (human SIRPA or SIRPβ1 Fc fusion) for 3 min, afterwards they were transferred to assay buffer for 3 min for off-rate measurement. […] Monovalent binding measurements were obtained by loading human SIRPA Fc fusion antigens to AHQ sensor and followed by exposure to 100 nM anti-SIRPA antibody Fab.
(§2) Additional monovalent measurements were made by loading biotinylated human SIRPA monomer to SA sensor followed by exposure to 100 nM Fab in solution. Kinetics data were fit using a 1:1 binding model in the data analysis software provided by ForteBio.

[8] = target: T6, human SIRPβ1 Fc fusion antigen; assay: ForteBio Fab monovalent
Experimental: as §1, §2

[9] = target: T7, biotinylated human SIRPA (monomer) (human, UniProt P78324 31-373, limits assumed, biotinylated); assay: MSD-SET, Fab, equilibrium;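 note: solution equilibrium titration, free antigen captured on antibody-coated MSD plates and detected by electrochemiluminescence with labeled streptavidin, percent free antigen versus titrated antibody fit to quadratic model for KD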
T7 construct: monomer made by IdeS cleavage of a SIRPA Fc fusion; also called recombinant human SIRPA
Experimental: Antibodies (20 nM in PBS) were coated onto standard bind MSD-ECL plates overnight at 4° C. or at room temperature for 30 min. Plates were then blocked with 1% BSA for 30 min with shaking at 700 rpm, followed by three washes with wash buffer (PBSF+0.05% Tween 20). SET samples were applied and incubated on the plates for 150s with shaking at 700 rpm followed by one wash. Antigen captured on a plate was detected with 250 ng/ml sulfotag-labeled streptavidin in PBSF by incubation on the plate for 3 min. The plates were washed three times with wash buffer and then read on the MSD Sector Imager 2400 instrument using 1× Read Buffer T with surfactant. The percent free antigen was plotted as a function of titrated antibody in Prism and fit to a quadratic equation to extract the KD. To improve throughput, liquid handling robots were used throughout MSD-SET experiments, including SET sample preparation.

[10] = target: human SIRPA D40A with C-terminal V5 tag on HEK-293T cells (human, UniProt P78324 31-504); assay: flow cytometry, Fab on HEK-293T cells with the mutant
Experimental: (§3) Epitope mapping of anti-SIRPA antibodies was performed using an alanine-scanning library created by shotgun mutagenesis of the human SIRPA cDNA sequence.
(§4) Antibodies were digested to generate Fabs, after which cells were incubated with Fabs diluted in 10% normal goat serum (NGS) (Sigma-Aldrich, St. Louis, MO). Prior to library screening, primary Fab concentrations were determined using an independent immunofluorescence titration curve against cells expressing wild type SIRPA to ensure that signals were within the linear range of detection. Fabs were detected using 7.5 μg/ml AlexaFluor488-conjugated secondary antibody (Jackson ImmunoResearch Laboratories, Westgrove, PA) in 10% NGS. Cells were washed twice with PBS and resuspended in Cellstripper (Cellgro, Manassas, VA) with 0.1% BSA (Sigma-Aldrich, St. Louis, MO). In some cases, higher stringency conditions were used, including increased pH, increased temperature, and increased dissociation time. Mean cellular fluorescence was detected using the Intellicyt high throughput flow cytometer (HTFC, Intellicyt, Albuquerque, NM). Fab reactivities against each mutant clone were calculated relative to wild-type SIRPA protein reactivity by subtracting the signal from mock-transfected controls, and normalizing to the signal from wild-type SIRPA transfected controls.

[11] = target: human SIRPA R54A with C-terminal V5 tag on HEK-293T cells (human, UniProt P78324 31-504); assay: as above
Experimental: as §3, §4

[12] = target: human SIRPA W68A with C-terminal V5 tag on HEK-293T cells (human, UniProt P78324 31-504); assay: as above
Experimental: as §3, §4

[13] = target: T5, human SIRPA Fc fusion antigen; assay: ForteBio Fab monovalent; remark: listed apart in the source
Experimental: Briefly, ForteBio affinity measurements were performed by loading IgGs on-line onto AHQ sensors. Sensors were equilibrated off-line in assay buffer for 30 min and then monitored on-line for 60 seconds for baseline establishment. For avid binding measurement, sensors with loaded IgGs were exposed to 100 nM antigen (human SIRPA or SIRPβ1 Fc fusion) for 3 min, afterwards they were transferred to assay buffer for 3 min for off-rate measurement. Additional avid binding was determined by loading biotinylated SIRPA monomer on SA sensors and exposure to 100 nM IgG in solution. Monovalent binding measurements were obtained by loading human SIRPA or SIRPβ1 Fc fusion antigens to AHQ sensor and followed by exposure to 100 nM anti-SIRPA antibody Fab. Additional monovalent measurements were made by loading biotinylated human SIRPA or SIRPβ1 monomer to SA sensor followed by exposure to 100 nM Fab in solution. Kinetics data were fit using a 1:1 binding model in the data analysis software provided by ForteBio.

binding result [1]: no binding (tested: 1 ug/ml) | Kd (Human SIRPA D1 Fc): 2.81 nM | binding result (Mouse SIRPA D1 Fc): no binding (tested: 100 nM) | binding result (Human SIRPb D1 Fc): no binding (tested: 100 nM) | relative MFI [2]: 128 fold over background | relative MFI [3]: 0.583 fold over background | Kd [4]: 2.04 nM | binding result [5]: no binding (tested: 100 nM) | luminescence of BWZ-huSIRPA reporter cells with SA-56 and plate-bound CD47 [6]: ~10 fold over background
B1: SA-56 (antibody, V domains shown)
VH: EVQLVESGGGLVKPGGSLRLSCAASGFTFSSYSMNWVRQAPGKGLEWVSSISSSSSYIYYADSVKGRFTISRDNAKNSLYLQMNSLRAEDTAVYYCARGVETYSGPNWFDPWGQGTLVTVSS
VL: DIQMTQSPSSVSASVGDRVTITCRASQGISSWLAWYQQKPGKAPKLLIYAASSLQSGVPSRFSGSGSGTDFTLTISSLQPEDFATYYCQQAIYFPITFGGGTKVEIK
notes: IgG; also called SA-56 (parental)

Kd [7]: 1.11 nM | binding result [8]: no binding (tested: 100 nM) | Kd [9]: 0.17 nM | Binding Reactivity (% WT), mean [10]: 0.4 % WT | Binding Reactivity (% WT), mean [11]: 1.7 % WT | Binding Reactivity (% WT), mean [12]: 19.3 % WT
B2: SA-56-90 Fab (Fab, V domains shown)
VH: QVQLVESGGGVVQPGRSLRLSCAASGSTFSHYGMSWVRQAPGKGLEWVASIWVDGSNKYYADSVKGRFTISRDNSKNTLYLQMDSLRAEDTAVYYCARGVETYSGPNWFDPWGQGTLVTVSS
VL: B1 VL
notes: papain Fab; also called SA-90

Kd [13]: 301 nM | Kd [7]: 206 nM | binding result [8]: no binding (tested: 100 nM)
B3: SA-56 Fab (Fab, V domains shown)
VH: B1 VH
VL: B1 VL
notes: papain Fab; also called SA-56 (parental)

Kd [7]: 3.43 nM | binding result [8]: no binding (tested: 100 nM) | Kd [9]: 0.88 nM | Binding Reactivity (% WT), mean [10]: 0.2 % WT | Binding Reactivity (% WT), mean [11]: 2.9 % WT | Binding Reactivity (% WT), mean [12]: 25.6 % WT
B4: SA-56-94 Fab (Fab, V domains shown)
VH: B2 VH with Q1E, S27F, H31Y, D84N, R98V, V100T
VL: B1 VL
notes: papain Fab; also called SA-94

Kd [13]: 497 nM
B5: SA-35 Fab (Fab, V domains shown)
VH: QVQLVQSGAEVKKPGASVKVSCKASGYTFTSYYMHWVRQAPGQGLEWMGIINPSGGSTSYAQKFQGRVTMTRDTSTSTVYMELSSLRSEDTAVYYCAREAGYDIKGFDYWGQGTLVTVSS
VL: DIQMTQSPSTLSASVGDRVTITCRASQSISSWLAWYQQKPGKAPKLLIYKASSLESGVPSRFSGSGSGTEFTLTISSLQPDDFATYYCQQYGSFPLTFGGGTKVEIK

Kd [13]: 2070 nM
B6: SA-36 Fab (Fab, V domains shown)
VH: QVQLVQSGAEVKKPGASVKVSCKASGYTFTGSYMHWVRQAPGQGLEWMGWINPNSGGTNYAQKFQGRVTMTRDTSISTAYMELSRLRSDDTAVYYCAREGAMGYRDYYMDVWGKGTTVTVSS
VL: EIVLTQSPATLSLSPGERATITCQASQDISSYLAWYQQKPGQAPRLLIYDASNRATGIPARFSGSGSGTDFTLTISSLEPEDFAVYYCQQRTHYPWTFGGGTKVEIK
notes: papain Fab

Kd [13]: 281 nM
B7: SA-38 Fab (Fab, V domains shown)
VH: QVQLQESGPGLVKPSQTLSLTCTVSGGSISSGGYYWSWIRQHPGKGLEWIGSIYYSGSTYYNPSLKSRVTISVDTSKNQFSLKLSSVTAADTAVYYCAREGAYSLYVNWFDPWGQGTLVTVSS
VL: EIVMTQSPATLSVSPGERATLSCRASQSVSSSLAWYQQKPGQAPRLLIFGASTRATGIPARFSGSGSGTEFTLTISSLQSEDFAVYYCQQYDNYPPITFGGGTKVEIK
notes: papain Fab

Kd [13]: 100 nM
B8: SA-39 Fab (Fab, V domains shown)
VH: QVQLVQSGAEVKKPGASVKVSCKASGYTFTSYYMVWVRQAPGQGLEWMGIINPSGGSTSYAQKFQGRVTMTRDTSTSTVYMELSSLRSEDTAVYYCAREGGYGYRAYPYGMDVWGQGTTVTVSS
VL: DIQMTQSPSSLSASVGDRVTITCQASQDISNSLNWYQQKPGKAPKLLIYDASNLETGVPSRFSGSRSGTDFTFTISSLQPEDIATYYCQQVIILPLTFGGGTKVEIK
notes: papain Fab
